Laboratory results reported in patent publication US20230313187A1, “MODIFICATIONS OF MAMMALIAN CELLS USING ARTIFICIAL MICRO-RNA TO ALTER THEIR PROPERTIES AND THE COMPOSITIONS OF THEIR PRODUCTS” (DNA TWOPOINTO INC., priority 2020, published 2023).

Test system: Cricetulus griseus dihydrofolate reductase mRNA
Test: Growth of a clonal cell line with amiRNA targeted toward dihydrofolate reductase with/without HT and MTX
Type: cell-based
Conditions: 50 nM MTX, no HT
Procedure: A monoclonal line (C426) was derived from the pool transfected with the transposon comprising multi-hairpin amiRNA with nucleotide sequence SEQ ID NO: 210 and selected with 800 μg/ml G418 described in Section 6.5.1. Growth of this clonal cell line in the presence and absence of HT and in the absence of HT and presence of 50 nM MTX was compared with the growth of a control cell line from which C426 was derived.
Cells were transferred to Sigma Advanced Fed Batch media with 5 uM glutamine and to an initial a density of 0.3×10^6 live cells/ml. Parallel cultures were grown (a) in the presence of HT, (b) in the absence of HT and (c) in the absence of HT and the presence of 50 nM MTX. At day 4, all cultures were diluted to adjust viable cell densities to 0.3×10^6 cell/ml. At day 8, all cultures were again diluted to adjust viable cell densities to 0.3×10^6 cell/ml. At day 13, all cultures except for the culture of C426 with 50 nM MTX were again diluted to adjust viable cell densities to 0.3×10^6 cell/ml.
Table 12. Growth of a clonal cell line with amiRNA targeted toward dihydrofolate reductase. […] Viable cell densities were measured at various times after the beginning of the experiment: the cell line is shown in column A, the presence of HT is indicated in column B and the concentration of MTX is shown in column C. […]

B1: SEQ ID NO: 210: three-hairpin amiRNA, guides SEQ ID NOs 82, 83, 84 complementary to Cricetulus griseus dihydrofolate reductase mRNA (nucleic acid)
chain: ATCTGATCTTCTGAAGAAAATATATTTCTTTTTATTCATAGCTCTTAACTAGTGGTGATAGCAATGTCAGCAGTGCCTTAACTCATAGATCTAAAGCCAAGTGAAGCCACAGATGTTGGCTTTAGCTCTATGAGTTCAAGTAAGGTTGACCATACTCTACTCTAGAGTTGTGTTTTAATGTATATTAATGTTACTAATGTGTTTACTAGTGGTGATAGCAATGTCAGCAGTGCCTTAGAGTACAACAGTTGCCCAGGGTGAAGCCACAGATGCCTGGGCAACCGTTGTACTCTCAAGTAAGGTTGACCATACTCTACTCTAGGTTATTTTTAGTATGATTCTGTAAAAATGAATTAATACTAACTAGTGGTGATAGCAATGTCAGCAGTGCCTTTGTTTAGAATTATACAGGGGCGTGAAGCCACAGATGGCCCCTGTATCATTCTAAACACAAGTAAGGTTGACCATACTCTACTCTAGTCAGTTTTATTGATAGTCTTTTCAGTATTATTGATAATCTT
effect of MTX in the growth media on growth: sensitizes cells to the presence of MTX in the growth media
